# Measured values from paper PMC1618392, “The crystal structure of superoxide dismutase from Plasmodium falciparum” (BMC Structural Biology, 2006).
# Biological target: the molecule itself
# Assay: AUC; sedimentation equilibrium, Beckman Optima XL/I, AN-50Ti rotor; 300 mM NaCl, 50 mM Tris-HCl, pH 7.5
protein,measurement,value
"Plasmodium falciparum cytosolic iron superoxide dismutase (enzyme, Plasmodium falciparum (3D7), UniProt Q8IAY6 1-198, looked up, cytosolic iron superoxide dismutase of Plasmodium falciparum (3D7), residues 1-198, amplified from genomic DNA; The calculated monomer mass is 23,799 Da; In the crystal Lys198 and the eight residues of the tag are not seen; also called PfFeSOD; PfSOD; source: E. coli BL21-CodonPlus, purified (Ni-NTA, Superdex 75 size exclusion)) MVITLPKLKYALNALSPHISEETLNFHYNKHHAGYVNKLNTLIKDTPFAEKSLLDIVKESSGAIFNNAAQIWNHTFYWDSMGPDCGGEPHGEIKEKIQEDFGSFNNFKEQFSNILCGHFGSGWGWLALNNNNKLVILQTHDAGNPIKDNTGIPILTCDIWEHAYYIDYRNDRASYVKAWWNLVNWNFANENLKKAMQK",stoichiometry N,2
